According to patent publication US20110171222A1 (Hoffmann-La Roche, published 2011):

Key:
[1] = target: HER3 on MCF7, FaDu and Mel-Juso tumor cells (human) (UniProt P21860); test: cell-based or functional assay
[2] = target: T1, Soluble human HER3 extracellular domain fused to Streptavidin Binding Protein (SBP) (human, UniProt P21860 20-643); test: ratio of the concentration by HER3-ECD ELISA to the concentration by IgG ELISA
T1 construct: It was used as HEK293 supernatant captured on streptavidin plates; also called SBP-HER3

[3] = target: T1, Soluble human HER3 extracellular domain …; test: ELISA, SBP-HER3 ECD captured on streptavidin plate, anti-human IgG-HRP detection
Procedure: Soluble human HER3 extracellular domain fused to Streptavidin Binding Protein (SBP) was captured on a streptavidin plate. […] For the standard coating, SBP-HER3 containing HEK293 supernatant was diluted (between 1:15 and 1:40) and incubated overnight at 2-80 C (25 μl per well). Intensive washing of the microtiter plate was necessary to remove remaining unbound SBP-HER3.
Antibodies were tested either undiluted or using a 12-step-dilution. 12.5 μl per well of each sample was incubated for 90 min at room temperature.

human HER3 ECD = target: T2, human HER3 ECD (human, UniProt P21860 20-643); test: SPR (Biacore T100), antibody captured by anti-Fc gamma, HER3 ECD as analyte, 25 °C, 1:1 Langmuir model
T2 construct: also called hHER3-ECD; hu-HER3-ECD
Procedure: After conjugation, anti-HER3 antibodies were injected at 25° C. at a flow rate of 5 μL/min, followed by a dilution series (0 nM to 1000 nM) of human HER3 ECD at 30 μL/min. As running buffer for the binding experiment PBS/0.1% BSA was used. The chip was then regenerated with a 60 s pulse of 10 mM glycine-HCl, pH 2.0 solution.
Calculation of thermodynamic parameters (KD, binding constant to HER3) were calculated using a Langmuir 1:1 binding model.

Row | pHER3 % inhibition [0.1 µg/ml], MCF7 cells [1] [%] | pHER3 % inhibition [1.0 µg/ml], MCF7 cells [1] [%] | activity (ratio binding to hu_HER3-ECD/IgG) [2] | hu_HER3-ECD-ELISA c [3] [µg/mL] | Kd (human HER3 ECD) [nM] | Binder
1 | 54 | 51 | – | – | – | U1-53 (antibody, from another filing, V domains shown) VH: EVQLVESGGGLVQPGGSLRLSCAASGFTFSIYSMNWVRQAPGKGLEWVSYISSSSSTIYYADSVKGRFTISRDNAKNSLYLQMNSLRDEDTAVYYCARDRGDFDAFDIWGQGTMVTVSS VL: DIQMTQSPSSLSASVGDRVTITCQASQDITNYLNWYQQKPGKAPKLLIYDASNLETGVPSRFSGSGSGTDFTFTISSLQPEDIATYNCQQCENFPITFGQGTRLEIK
2 | – | – | 0.74 | 583 | 2 | Mab 205.10.1 (antibody, V domains shown, Humanized antibody; Only the variable domains are tied to it; The assays detected it with anti-human IgG or captured it with anti-Fc gamma) VH: QVQLVQSGAEVKKPGASVKVSCKASGYTFRSSYISWVRQAPGQGLEWMGWIYAGTGSPSYNQKLQGRVTMTTDTSTSTAYMELRSLRSDDTAVYYCARHRDYYSNSLTYWGQGTLVTVSS VL: DIVMTQSPDSLAVSLGERATINCKSSQSLLNSGNQKNYLTWYQQKPGQPPKLLIYWASTRESGVPDRFSGSGSGTDFTLTISSLQAEDVAVYYCQSDYSYPYTFGQGTKLEIK
3 | – | – | 0.83 | 505 | 2 | Mab 205.10.3 (antibody, human IgG1, V domains shown, Humanized antibody; Only the variable domains are tied to it) VH: QVQLVQSGAEVKKPGASVKVSCKASGYTFRSSYISWVRQAPGQGLEWMGWIYAGTGSPSYNQKLQGRVTMTTDTSTSTAYMELRSLRSDDTAVYYCARHRDYYSNSLTYWGQGTLVTVSS VL: DIVMTQSPDSLAVSLGERATINCKSSQSLLNSGNQKNYLTWYQQKPGQPPKLLIYWASTRESGVPDRFSGSGSGTDFTLTISSLQAEDVSIYYCQSDYSYPYTFGQGTKLEIK
